Here are results for two variants from IntAct's records for PubMed 18264113.

The labels stand for the following.
B1: Histone-lysine N-methyltransferase EHMT2 (Mus musculus), Q9Z148-1 (parent)
chain: MRGLPRGRGLMRARGRGRAAPTGGRGRGRGGAHRGRGRPRSLLSLPRAQASWAPQLPAGLTGPPVPCLPSQGEAPAEMGALLLEKEPRGAAERVHSSLGDTPQSEETLPKANPDSLEPAGPSSPASVTVTVGDEGADTPVGAASLIGDEPESLEGDGGRIVLGHATKSFPSSPSKGGACPSRAKMSMTGAGKSPPSVQSLAMRLLSMPGAQGAATAGPEPSPATTAAQEGQPKVHRARKTMSKPSNGQPPIPEKRPPEVQHFRMSDDMHLGKVTSDVAKRRKLNSGSLSEDLGSAGGSGDIILEKGEPRPLEEWETVVGDDFSLYYDAYSVDERVDSDSKSEVEALAEQLSEEEEEEEEEEEEEEEEEEEEEEEEEDEESGNQSDRSGSSGRRKAKKKWRKDSPWVKPSRKRRKREPPRAKEPRGVNGVGSSGPSEYMEVPLGSLELPSEGTLSPNHAGVSNDTSSLETERGFEELPLCSCRMEAPKIDRISERAGHKCMATESVDGELLGCNAAILKRETMRPSSRVALMVLCEAHRARMVKHHCCPGCGYFCTAGTFLECHPDFRVAHRFHKACVSQLNGMVFCPHCGEDASEAQEVTIPRGDGGTPPIGTAAPALPPLAHDAPGRADTSQPSARMRGHGEPRRPPCDPLADTIDSSGPSLTLPNGGCLSAVGLPPGPGREALEKALVIQESERRKKLRFHPRQLYLSVKQGELQKVILMLLDNLDPNFQSDQQSKRTPLHAAAQKGSVEICHVLLQAGANINAVDKQQRTPLMEAVVNNHLEVARYMVQLGGCVYSKEEDGSTCLHHAAKIGNLEMVSLLLSTGQVDVNAQDSGGWTPIIWAAEHKHIDVIRMLLTRGADVTLTDNEENICLHWASFTGSAAIAEVLLNAQCDLHAVNYHGDTPLHIAARESYHDCVLLFLSRGANPELRNKEGDTAWDLTPERSDVWFALQLNRKLRLGVGNRAVRTEKIICRDVARGYENVPIPCVNGVDGEPCPEDYKYISENCETSTMNIDRNITHLQHCTCVDDCSSSNCLCGQLSIRCWYDKDGRLLQEFNKIEPPLIFECNQACSCWRSCKNRVVQSGIKVRLQLYRTAKMGWGVRALQTIPQGTFICEYVGELISDAEADVREDDSYLFDLDNKDGEVYCIDARYYGNISRFINHLCDPNIIPVRVFMLHQDLRFPRIAFFSSRDIRTGEELGFDYGDRFWDIKSKYFTCQCGSEKCKHSAEAIALEQSRLARLDPHPELLPDLSSLPPINT

The variants in the first experiment derive from B1. To be noted: with gfi1_human GFI1, Q99684.
Sequence of gfi1_human GFI1, Q99684 (Q99684 whole entry): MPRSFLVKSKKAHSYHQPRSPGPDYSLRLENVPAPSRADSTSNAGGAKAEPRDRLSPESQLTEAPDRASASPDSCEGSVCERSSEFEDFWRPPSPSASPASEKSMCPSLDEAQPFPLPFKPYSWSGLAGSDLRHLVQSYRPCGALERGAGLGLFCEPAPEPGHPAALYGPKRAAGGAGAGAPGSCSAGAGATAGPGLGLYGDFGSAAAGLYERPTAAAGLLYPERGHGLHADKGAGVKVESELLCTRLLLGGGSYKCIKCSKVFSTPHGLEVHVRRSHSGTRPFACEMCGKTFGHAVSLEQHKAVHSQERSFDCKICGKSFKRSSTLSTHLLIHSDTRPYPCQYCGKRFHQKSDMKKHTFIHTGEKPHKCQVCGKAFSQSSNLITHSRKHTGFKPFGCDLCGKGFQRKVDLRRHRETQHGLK
E847A: the “effect of a mutation on the interaction” value is “decreasing interaction”.

Regarding W839A, the “effect of a mutation on the interaction” value is reported as “decreasing interaction”.

The variants in another experiment derive from B1. To be noted: with ncoa2_mouse Ncoa2, Q61026.
Sequence of ncoa2_mouse Ncoa2, Q61026 (Q61026 whole entry): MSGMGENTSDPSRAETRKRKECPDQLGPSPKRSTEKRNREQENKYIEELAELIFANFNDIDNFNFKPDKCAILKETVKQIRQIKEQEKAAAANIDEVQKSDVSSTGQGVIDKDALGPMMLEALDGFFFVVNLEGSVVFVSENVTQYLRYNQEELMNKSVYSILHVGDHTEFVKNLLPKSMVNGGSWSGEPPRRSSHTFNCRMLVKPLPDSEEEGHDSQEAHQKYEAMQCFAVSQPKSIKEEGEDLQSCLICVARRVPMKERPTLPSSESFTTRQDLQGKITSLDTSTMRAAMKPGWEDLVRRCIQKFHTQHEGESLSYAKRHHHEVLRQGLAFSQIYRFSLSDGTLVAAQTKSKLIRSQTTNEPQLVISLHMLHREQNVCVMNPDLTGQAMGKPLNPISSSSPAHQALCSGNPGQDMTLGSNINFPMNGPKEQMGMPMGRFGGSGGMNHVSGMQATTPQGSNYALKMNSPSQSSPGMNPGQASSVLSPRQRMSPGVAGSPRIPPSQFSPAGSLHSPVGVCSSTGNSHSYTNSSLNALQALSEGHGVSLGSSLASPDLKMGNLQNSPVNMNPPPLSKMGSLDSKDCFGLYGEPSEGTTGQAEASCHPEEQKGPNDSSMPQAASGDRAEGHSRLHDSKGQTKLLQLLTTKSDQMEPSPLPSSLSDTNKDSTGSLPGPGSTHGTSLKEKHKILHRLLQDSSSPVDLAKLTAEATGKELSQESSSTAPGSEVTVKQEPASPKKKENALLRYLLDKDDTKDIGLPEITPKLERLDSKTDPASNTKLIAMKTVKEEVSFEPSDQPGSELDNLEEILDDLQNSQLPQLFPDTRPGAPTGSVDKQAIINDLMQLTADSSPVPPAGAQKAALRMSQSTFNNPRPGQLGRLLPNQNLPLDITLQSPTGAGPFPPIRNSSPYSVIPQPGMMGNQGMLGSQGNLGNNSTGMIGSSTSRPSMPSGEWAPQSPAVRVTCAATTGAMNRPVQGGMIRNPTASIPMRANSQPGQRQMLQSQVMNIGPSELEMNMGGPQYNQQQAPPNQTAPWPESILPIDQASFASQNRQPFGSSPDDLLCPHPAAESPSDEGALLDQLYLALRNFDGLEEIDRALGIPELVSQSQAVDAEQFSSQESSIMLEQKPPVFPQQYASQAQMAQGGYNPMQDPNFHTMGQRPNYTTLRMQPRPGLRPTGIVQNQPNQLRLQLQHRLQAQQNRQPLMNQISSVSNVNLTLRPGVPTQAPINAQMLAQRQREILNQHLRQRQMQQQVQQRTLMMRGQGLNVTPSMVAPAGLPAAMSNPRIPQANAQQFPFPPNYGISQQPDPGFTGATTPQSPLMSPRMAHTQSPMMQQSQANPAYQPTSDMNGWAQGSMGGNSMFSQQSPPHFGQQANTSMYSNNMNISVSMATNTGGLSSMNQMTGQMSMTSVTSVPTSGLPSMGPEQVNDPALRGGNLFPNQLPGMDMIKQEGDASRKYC
Consider E847A, for which the “effect of a mutation on the interaction” value is “decreasing interaction”.
